The values below come from PMC10786891, “Massively parallel profiling of RNA-targeting CRISPR-Cas13d”.

The chains are these.
B1: target 1 MT 5'PFS GCC 3'PFS UAA (mixed)
RNA 1: CACCCGUGCAAAAAUGCAGGGGUCUAAAACUGAGCGGAUAACCUCUCUAUGG
RNA 2: GGGAAUGGAUCCACAUCUACGAAUUCGCCCCAUAGAGAGGUUAUCCGCUCAUAAAGAUCGGAAGAGCACACGU
B2: target 1 MT 5'PFS UGC 3'PFS ACA (mixed)
RNA 1: CACCCGUGCAAAAAUGCAGGGGUCUAAAACUGAGCGGAUAACCUCUCUAUGG
RNA 2: GGGAAUGGAUCCACAUCUACGAAUUCUGCCCAUAGAGAGGUUAUCCGCUCAACAAGAUCGGAAGAGCACACGU
B3: target 1 MT 5'PFS UCC 3'PFS CCU (mixed)
RNA 1: CACCCGUGCAAAAAUGCAGGGGUCUAAAACUGAGCGGAUAACCUCUCUAUGG
RNA 2: GGGAAUGGAUCCACAUCUACGAAUUCUCCCCAUAGAGAGGUUAUCCGCUCACCUAGAUCGGAAGAGCACACGU
B4: target 1 MT 5'PFS GUU 3'PFS AAC (mixed)
RNA 1: CACCCGUGCAAAAAUGCAGGGGUCUAAAACUGAGCGGAUAACCUCUCUAUGG
RNA 2: GGGAAUGGAUCCACAUCUACGAAUUCGUUCCAUAGAGAGGUUAUCCGCUCAAACAGAUCGGAAGAGCACACGU
B5: target 1 MT 5'PFS AGA 3'PFS CCG (mixed)
RNA 1: CACCCGUGCAAAAAUGCAGGGGUCUAAAACUGAGCGGAUAACCUCUCUAUGG
RNA 2: GGGAAUGGAUCCACAUCUACGAAUUCAGACCAUAGAGAGGUUAUCCGCUCACCGAGAUCGGAAGAGCACACGU
B6: target 1 MT 5'PFS GUA 3'PFS CAG (mixed)
RNA 1: CACCCGUGCAAAAAUGCAGGGGUCUAAAACUGAGCGGAUAACCUCUCUAUGG
RNA 2: GGGAAUGGAUCCACAUCUACGAAUUCGUACCAUAGAGAGGUUAUCCGCUCACAGAGAUCGGAAGAGCACACGU
B7: target 1 MT 5'PFS CAA 3'PFS CCC (mixed)
RNA 1: CACCCGUGCAAAAAUGCAGGGGUCUAAAACUGAGCGGAUAACCUCUCUAUGG
RNA 2: GGGAAUGGAUCCACAUCUACGAAUUCCAACCAUAGAGAGGUUAUCCGCUCACCCAGAUCGGAAGAGCACACGU
B8: target 1 MT 5'PFS UGC 3'PFS ACG (mixed)
RNA 1: CACCCGUGCAAAAAUGCAGGGGUCUAAAACUGAGCGGAUAACCUCUCUAUGG
RNA 2: GGGAAUGGAUCCACAUCUACGAAUUCUGCCCAUAGAGAGGUUAUCCGCUCAACGAGAUCGGAAGAGCACACGU
B9: target 1 MT 5'PFS AGA 3'PFS AAU (mixed)
RNA 1: CACCCGUGCAAAAAUGCAGGGGUCUAAAACUGAGCGGAUAACCUCUCUAUGG
RNA 2: GGGAAUGGAUCCACAUCUACGAAUUCAGACCAUAGAGAGGUUAUCCGCUCAAAUAGAUCGGAAGAGCACACGU
B10: target 1 MT 5'PFS CAA 3'PFS CCG (mixed)
RNA 1: CACCCGUGCAAAAAUGCAGGGGUCUAAAACUGAGCGGAUAACCUCUCUAUGG
RNA 2: GGGAAUGGAUCCACAUCUACGAAUUCCAACCAUAGAGAGGUUAUCCGCUCACCGAGAUCGGAAGAGCACACGU
B11: target 1 MT 5'PFS GUA 3'PFS CAC (mixed)
RNA 1: CACCCGUGCAAAAAUGCAGGGGUCUAAAACUGAGCGGAUAACCUCUCUAUGG
RNA 2: GGGAAUGGAUCCACAUCUACGAAUUCGUACCAUAGAGAGGUUAUCCGCUCACACAGAUCGGAAGAGCACACGU
B12: target 1 MT 5'PFS ACU 3'PFS CAU (mixed)
RNA 1: CACCCGUGCAAAAAUGCAGGGGUCUAAAACUGAGCGGAUAACCUCUCUAUGG
RNA 2: GGGAAUGGAUCCACAUCUACGAAUUCACUCCAUAGAGAGGUUAUCCGCUCACAUAGAUCGGAAGAGCACACGU
B13: target 1 MT 5'PFS AGA 3'PFS AAG (mixed)
RNA 1: CACCCGUGCAAAAAUGCAGGGGUCUAAAACUGAGCGGAUAACCUCUCUAUGG
RNA 2: GGGAAUGGAUCCACAUCUACGAAUUCAGACCAUAGAGAGGUUAUCCGCUCAAAGAGAUCGGAAGAGCACACGU
B14: target 1 MT 5'PFS UGC 3'PFS ACU (mixed)
RNA 1: CACCCGUGCAAAAAUGCAGGGGUCUAAAACUGAGCGGAUAACCUCUCUAUGG
RNA 2: GGGAAUGGAUCCACAUCUACGAAUUCUGCCCAUAGAGAGGUUAUCCGCUCAACUAGAUCGGAAGAGCACACGU
B15: target 1 MT 5'PFS GAC 3'PFS CCC (mixed)
RNA 1: CACCCGUGCAAAAAUGCAGGGGUCUAAAACUGAGCGGAUAACCUCUCUAUGG
RNA 2: GGGAAUGGAUCCACAUCUACGAAUUCGACCCAUAGAGAGGUUAUCCGCUCACCCAGAUCGGAAGAGCACACGU
B16: target 1 MT 5'PFS CAA 3'PFS AAA (mixed)
RNA 1: CACCCGUGCAAAAAUGCAGGGGUCUAAAACUGAGCGGAUAACCUCUCUAUGG
RNA 2: GGGAAUGGAUCCACAUCUACGAAUUCCAACCAUAGAGAGGUUAUCCGCUCAAAAAGAUCGGAAGAGCACACGU
B17: target 1 MT 5'PFS GUA 3'PFS CAA (mixed)
RNA 1: CACCCGUGCAAAAAUGCAGGGGUCUAAAACUGAGCGGAUAACCUCUCUAUGG
RNA 2: GGGAAUGGAUCCACAUCUACGAAUUCGUACCAUAGAGAGGUUAUCCGCUCACAAAGAUCGGAAGAGCACACGU
B18: target 1 MT 5'PFS GUA 3'PFS CAU (mixed)
RNA 1: CACCCGUGCAAAAAUGCAGGGGUCUAAAACUGAGCGGAUAACCUCUCUAUGG
RNA 2: GGGAAUGGAUCCACAUCUACGAAUUCGUACCAUAGAGAGGUUAUCCGCUCACAUAGAUCGGAAGAGCACACGU
B19: target 1 MT 5'PFS UCC 3'PFS CCG (mixed)
RNA 1: CACCCGUGCAAAAAUGCAGGGGUCUAAAACUGAGCGGAUAACCUCUCUAUGG
RNA 2: GGGAAUGGAUCCACAUCUACGAAUUCUCCCCAUAGAGAGGUUAUCCGCUCACCGAGAUCGGAAGAGCACACGU
B20: target 1 MT 5'PFS CAA 3'PFS AAC (mixed)
RNA 1: CACCCGUGCAAAAAUGCAGGGGUCUAAAACUGAGCGGAUAACCUCUCUAUGG
RNA 2: GGGAAUGGAUCCACAUCUACGAAUUCCAACCAUAGAGAGGUUAUCCGCUCAAACAGAUCGGAAGAGCACACGU
B21: target 1 MT 5'PFS GCC 3'PFS UAU (mixed)
RNA 1: CACCCGUGCAAAAAUGCAGGGGUCUAAAACUGAGCGGAUAACCUCUCUAUGG
RNA 2: GGGAAUGGAUCCACAUCUACGAAUUCGCCCCAUAGAGAGGUUAUCCGCUCAUAUAGAUCGGAAGAGCACACGU
B22: target 1 MT 5'PFS AGA 3'PFS CCU (mixed)
RNA 1: CACCCGUGCAAAAAUGCAGGGGUCUAAAACUGAGCGGAUAACCUCUCUAUGG
RNA 2: GGGAAUGGAUCCACAUCUACGAAUUCAGACCAUAGAGAGGUUAUCCGCUCACCUAGAUCGGAAGAGCACACGU
B23: target 1 MT 5'PFS AAC 3'PFS UUC (mixed)
RNA 1: CACCCGUGCAAAAAUGCAGGGGUCUAAAACUGAGCGGAUAACCUCUCUAUGG
RNA 2: GGGAAUGGAUCCACAUCUACGAAUUCAACCCAUAGAGAGGUUAUCCGCUCAUUCAGAUCGGAAGAGCACACGU
B24: target 1 MT 5'PFS CAA 3'PFS AUU (mixed)
RNA 1: CACCCGUGCAAAAAUGCAGGGGUCUAAAACUGAGCGGAUAACCUCUCUAUGG
RNA 2: GGGAAUGGAUCCACAUCUACGAAUUCCAACCAUAGAGAGGUUAUCCGCUCAAUUAGAUCGGAAGAGCACACGU
B25: target 1 insG 3' of 19,insG 3' of 6 (mixed)
RNA 1: CACCCGUGCAAAAAUGCAGGGGUCUAAAACUGAGCGGAUAACCUCUCUAUGG
RNA 2: GGGAAUGGAUCCACAUCUACGAAUUCGUACCAUGAGAGAGGUUAUCCGGCUCACCGAGAUCGGAAGAGCACACGU
B26: target 1 insG 3' of 22,insU 3' of 2 (mixed)
RNA 1: CACCCGUGCAAAAAUGCAGGGGUCUAAAACUGAGCGGAUAACCUCUCUAUGG
RNA 2: GGGAAUGGAUCCACAUCUACGAAUUCGUACGCAUAGAGAGGUUAUCCGCUCUACCGAGAUCGGAAGAGCACACGU
B27: target 1 MT 5'PFS AGA 3'PFS AAC (mixed)
RNA 1: CACCCGUGCAAAAAUGCAGGGGUCUAAAACUGAGCGGAUAACCUCUCUAUGG
RNA 2: GGGAAUGGAUCCACAUCUACGAAUUCAGACCAUAGAGAGGUUAUCCGCUCAAACAGAUCGGAAGAGCACACGU

This series deals with T1, EsCas13d, nuclease-dead (Eubacterium siraeum, UniProt B0MS50, R295A;H300A;R849A;H854A).
T1 sequence: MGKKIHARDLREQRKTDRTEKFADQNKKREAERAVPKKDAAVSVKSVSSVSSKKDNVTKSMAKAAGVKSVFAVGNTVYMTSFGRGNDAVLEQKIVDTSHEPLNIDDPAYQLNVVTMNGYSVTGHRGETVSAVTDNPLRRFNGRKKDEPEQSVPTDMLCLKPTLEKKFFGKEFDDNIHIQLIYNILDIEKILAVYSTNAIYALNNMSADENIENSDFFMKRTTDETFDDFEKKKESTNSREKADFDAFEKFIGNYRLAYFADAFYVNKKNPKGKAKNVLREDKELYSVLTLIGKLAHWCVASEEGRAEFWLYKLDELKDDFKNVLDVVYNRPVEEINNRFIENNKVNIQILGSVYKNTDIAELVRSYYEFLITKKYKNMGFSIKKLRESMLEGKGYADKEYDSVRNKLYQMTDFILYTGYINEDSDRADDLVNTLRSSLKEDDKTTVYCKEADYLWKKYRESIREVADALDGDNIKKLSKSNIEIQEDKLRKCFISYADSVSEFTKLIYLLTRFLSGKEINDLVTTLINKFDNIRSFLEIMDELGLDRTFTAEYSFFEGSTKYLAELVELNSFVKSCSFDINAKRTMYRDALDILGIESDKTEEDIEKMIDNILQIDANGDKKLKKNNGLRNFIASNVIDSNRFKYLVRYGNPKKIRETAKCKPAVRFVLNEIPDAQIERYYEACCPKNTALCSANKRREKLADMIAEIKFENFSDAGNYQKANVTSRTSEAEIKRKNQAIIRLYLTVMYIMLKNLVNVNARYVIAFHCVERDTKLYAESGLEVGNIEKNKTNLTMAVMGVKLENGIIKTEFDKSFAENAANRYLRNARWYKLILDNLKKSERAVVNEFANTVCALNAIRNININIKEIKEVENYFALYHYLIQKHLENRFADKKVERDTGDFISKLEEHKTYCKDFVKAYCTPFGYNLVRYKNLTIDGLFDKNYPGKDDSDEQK
The experiment in a line: crRNA (strand 1, pre-loaded); Mg2+; 40 mM Tris-HCl pH 7.5, 150 mM NaCl, 6 mM MgCl2, 1 mM DTT, 0.1% Tween-20, 0.2 mg/ml BSA; 25 C; 10 min per concentration, then washed. Particulars: tags: His6-TwinStrep-SUMO cleaved; N-terminal SNAP kept (SNAP-Surface 488); label: 3' end held by stalled T7 RNA polymerase.
As for B1, the affinity, expressed as Kd, was 16 ± 6 nM.

As to B2, binding was put at a Kd of 23.5 ± 8.5 nM. On to B3, for which the Kd – broadly, the equilibrium constant for the complex coming apart – was ~15 nM. In turn, B4 came in with a Kd of 52 ± 19 nM. With B5, the affinity, expressed as Kd, was 37 ± 10.5 nM. Then B6, with 17.6 ± 2.25 nM; and B7, with ~30.5 nM; and B8, with 16.2 ± 4.65 nM. As to B9, the Kd came to 61 ± 22 nM. In turn, B10 displayed a dissociation constant Kd of 24 ± 6.5 nM. Regarding B11, the Kd was determined as 16.9 ± 2.35 nM. Turning to B12, the Kd is ~80 nM. With B13, the Kd was ~65.5 nM. For B14 the value was 10.8 ± 2.45 nM; for B15, ~37 nM.

The molecule B16 registered a Kd of 43 ± 18 nM. For B17 the value was 19.6 ± 2.3 nM. Then B18, with 12 ± 1.15 nM; and B19, with 18 ± 5 nM; and B20, with ~27.5 nM. The molecule B21 came in with a Kd of 10.8 ± 2.45 nM. Take B22: the Kd is ~64.5 nM.

Molecule B23 showed a Kd of 14.1 ± 3.9 nM.

For the molecule B24, binding was characterised by a dissociation constant (Kd) of 9.8 ± 3.5 nM.

On to B25, for which the Kd came out at 76 ± 9 nM. Against the preceding molecule, the Kd is about 7.8-fold higher. For B26, the Kd worked out at 29.7 ± 2.7 nM. Consider B27, for which the Kd was ~90 nM.
